The target in assay [1] is T1, CD30-Fc (human).
T1 construct: also called extracellular domain of CD30 fused with human IgG Fc
T1 chain: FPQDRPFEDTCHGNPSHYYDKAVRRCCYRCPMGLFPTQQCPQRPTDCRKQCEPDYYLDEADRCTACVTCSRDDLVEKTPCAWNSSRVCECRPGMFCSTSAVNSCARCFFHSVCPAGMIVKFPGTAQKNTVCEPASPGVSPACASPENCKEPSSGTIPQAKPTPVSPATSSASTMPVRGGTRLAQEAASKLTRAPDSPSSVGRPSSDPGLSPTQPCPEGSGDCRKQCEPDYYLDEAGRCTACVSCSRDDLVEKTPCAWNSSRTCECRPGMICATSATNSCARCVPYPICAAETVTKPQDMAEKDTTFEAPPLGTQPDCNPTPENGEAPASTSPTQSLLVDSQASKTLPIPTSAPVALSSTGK
The assay can be described thus: affinity of the MAb; ELISA using CD30-Fc.
Description: (§1) In one type of ELISA (CD30-Fc ELISA), microtiter plates were coated with 25 ng/well of CD30-Fc. Culture supernatants of hybridoma were added to the coated wells, and bound MAbs were detected with HRP-labeled rat anti-mouse kappa chain monoclonal antibody. A different format of ELISA. Ig-trap ELISA, was also carried out. MAbs were captured by anti-mouse IgG coated on the plates, and then reacted with various concentrations of CD30-Fc in solution. The bound CD30-Fc was detected with HRP-labeled goat anti-human Fc antibody.
(§2) Determination of affinity: Each MAb was titered in the CD30-Fc ELISA described above and an appropriate dilution for each MAb was selected from the liner range of the titration curves. […] The free MAb concentration in each equilibrium reaction was measured by the same ELISA using standard curves. No re-equilibrium occurred during the ELISA because of the small amounts of coated CD30-Fc and the short time of incubation. The CD30-Fc concentration giving half free MAb was the Kd.

In assay [2] the target is T2, recombinant soluble CD30 (sCD30) produced in E. coli (human).
T2 construct: also called soluble CD30 made in E. coli; extracellular domain of CD30 with His-tag
T2 chain: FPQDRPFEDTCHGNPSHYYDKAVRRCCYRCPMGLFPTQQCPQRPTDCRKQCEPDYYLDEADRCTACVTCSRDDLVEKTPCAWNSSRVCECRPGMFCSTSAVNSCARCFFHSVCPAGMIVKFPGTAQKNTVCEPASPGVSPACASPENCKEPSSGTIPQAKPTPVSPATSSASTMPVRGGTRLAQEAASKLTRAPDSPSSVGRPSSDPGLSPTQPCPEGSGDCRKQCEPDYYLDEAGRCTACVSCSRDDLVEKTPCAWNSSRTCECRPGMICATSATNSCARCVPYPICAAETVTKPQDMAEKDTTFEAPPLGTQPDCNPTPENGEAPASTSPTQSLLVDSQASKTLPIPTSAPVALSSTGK
Description: indirect ELISA, sCD30 coated. (In general: An ELISA detects its analyte on a solid surface through an enzyme-linked reagent.)
Description: (§3) ELISA. The binding of anti-CD30 MAbs to sCD30 and CD30-Fc was assayed by indirect ELISAs. Microtiter plates (Costar, Cambridge, Mass.) were coated with 20 ng/well of sCD30 or CD30-Fc in PBS overnight at 4° C. After blocking with 0.5% of BSA in PBS, hybridoma supernatants or purified MAbs were added to the coated wells and incubated for 2 h at room temperature. The bound MAbs were detected with alkaline phosphatase (ALP)-labeled anti-mouse IgG (BioSource, Camarillo, Calif.) and p-nitrophenyl phosphate as the substrate.

For assay [3], the target named is T1, CD30-Fc. Description: indirect ELISA, CD30-Fc coated.
Description: as §3
Assay [4] addresses T3, human CD30, native, expressed on cells (human).
T3 construct: also called native CD30; CD30 on L540, L428, A431/CD30, Karpas299, SUDHL-1 and other CD30-positive cells
T3 chain: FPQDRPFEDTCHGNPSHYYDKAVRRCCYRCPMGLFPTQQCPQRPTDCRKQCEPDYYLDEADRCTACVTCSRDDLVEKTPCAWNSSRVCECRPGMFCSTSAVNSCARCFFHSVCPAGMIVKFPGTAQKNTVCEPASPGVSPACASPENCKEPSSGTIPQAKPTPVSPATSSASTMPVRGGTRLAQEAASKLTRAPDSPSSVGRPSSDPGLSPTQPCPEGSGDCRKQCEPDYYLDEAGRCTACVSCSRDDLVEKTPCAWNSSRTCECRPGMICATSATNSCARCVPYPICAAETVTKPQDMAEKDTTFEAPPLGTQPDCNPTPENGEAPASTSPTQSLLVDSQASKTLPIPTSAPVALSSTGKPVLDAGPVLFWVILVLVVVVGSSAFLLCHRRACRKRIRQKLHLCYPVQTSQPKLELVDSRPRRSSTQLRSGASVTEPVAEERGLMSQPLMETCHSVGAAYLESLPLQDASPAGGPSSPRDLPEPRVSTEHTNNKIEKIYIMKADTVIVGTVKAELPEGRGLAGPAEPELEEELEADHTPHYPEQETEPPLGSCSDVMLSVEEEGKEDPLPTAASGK
Description: FACS, L428 cells, MAb 5 µg/ml, control HeFi-I. In general terms: In flow cytometry, cells or beads pass a laser one at a time.
Description: (§4) FACS Analysis. FACS analysis was performed to measure the binding of the MAbs or immunotoxins to native CD30 expressed on various cell lines. […] After incubation for 1 h at 4° C., the cells were washed twice with the same buffer and incubated with FITC-labeled goat mouse IgG (BioSource). After washing, the cells were suspended in 1 ml of the buffer, and the fluorescence associated with the live cells was measured using a FACS Calibur flow cytometer (Beckman Coulter, Fullerton, Calif.).
(§5) The binding activity of the MAbs to native CD30 on cells was measured.

In assay [5] the target is T3, human CD30, native, expressed on cells. The assay can be described thus: FACS, L540 cells, MAb 5 µg/ml, control HeFi-I.
Description: as §4, §5
The target in assay [6] is T1, CD30-Fc. Description: ELISA using CD30-Fc (equilibrium in solution).
Description: as §1, §2
In assay [7] the target is T3, human CD30, native, expressed on cells. The assay can be described thus: competitive FACS on L540 cells, unlabeled MAb 2.5 µg/ml; competitor: biotin-T6.
Description: as §4
(§6) These MAbs were further characterized for their topographical epitopes by a competitive binding assay using FACS analysis. […] Some of the MAbs were biotinylated as the indicators and incubated with L540 cells in the presence of various concentrations of unlabeled MAbs as the competitors.
For assay [8] the target is unchanged. The assay can be described thus: competitive FACS on L540 cells, unlabeled MAb 2.5 µg/ml; competitor: biotin-T14.
Description: as §6
Assay [9] shares this target. Description: competitive FACS on L540 cells, unlabeled MAb 2.5 µg/ml; competitor: biotin-T24.
Description: as §6
The target is the same in assay [10]. The assay can be described thus: competitive FACS on L540 cells, unlabeled MAb 2.5 µg/ml; competitor: biotin-T25.
Description: as §6
The target is the same in assay [11]. Description: competitive FACS on L540 cells, unlabeled MAb 2.5 µg/ml; competitor: biotin-HRS-4.
Description: as §6
Assay [12] shares this target. Description: competitive FACS on L540 cells, unlabeled MAb 2.5 µg/ml; competitor: biotin-HeFi-I.
Description: as §6

As usually defined, the Kd is the concentration at which binding is half-saturated. Higher therefore signals weaker binding.

B1: T405 MAb (antibody, V domains shown)
VH: QVQLQQIGAELVRPGASVKLSCKASGYTFNNYWINWVKQRPGQGLEWIGNIYPSDSRSNYNQKFKDKATLTVDKPSSTAYMQLSSPTSEDSAVYYCTLGSYWGQGTLVTVSA
VL: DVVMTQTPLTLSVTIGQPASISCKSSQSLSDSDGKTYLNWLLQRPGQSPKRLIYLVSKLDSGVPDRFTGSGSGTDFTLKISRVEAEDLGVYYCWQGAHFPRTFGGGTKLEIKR
In the case of B1, the Kd with CD30-Fc [1] was determined as 5.7 nM.

B2: T408 MAb (antibody, V domains shown)
VH: QVQLQQPGAELVRPGASVKLSCKASGYTFTSYWINWVKQRPGQGLEWIGNIYPSDSYSNYNQKFKDKATLTVDKSSSTAYMQLSSPTSEDSAVYYCTLGSYWGQGTLVTVSA
VL: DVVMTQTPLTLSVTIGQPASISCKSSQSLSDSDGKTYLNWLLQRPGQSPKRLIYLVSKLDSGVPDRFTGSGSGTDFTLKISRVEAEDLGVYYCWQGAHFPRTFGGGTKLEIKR
In the assay with CD30-Fc [1], B2 yielded a Kd of 6.4 nM.

B3: T427 MAb (antibody, V domains shown)
VH: QVQLQQPGTELVRPGASVKLSCKASGFSFTSYWMNWVKQRPGQGLEWIGMIHPSDSETRLNQKFKDRATLTVDKSSSTAYMQLSSPTSEDSAVYYCASEMDYYFAMDYWGQGTSVTVSS
VL: DIVLTQSPTSLAVSLGQRATISCRASESVDSYGNSFMHWFQQKPGQPPKLLIYRASNLESGIPARFSGSGSWTDFTLTINPVEADDVATYYCQQSNEDPRTFGGGTKLEIKR
As for B3, the Kd with CD30-Fc [1] worked out at 0.9 nM.

B4: T13 MAb (antibody, V domains shown)
VH: QVQLQQSGAELAKPGASVKMSCKASGYTFTTYWMHWVKQRPGQGLEWIGYINPSTGYTDYNEKFKDKATLTADKSSSTAYMQLSSLTSEDSAVYYCVRRGSYDGNPFAYWGQGTLVSVSA
VL: DIVMTQSHKFMSTSVGDRVTITCKASQDVSTAVAWYQQKPGHSPKLLIYWASTRHTGVPDRFTGSGSGTDYTLTISSVQVEDLALYYCQQHYSTPFTFGSGTKLEIKR
Regarding B4, the “titer in ELISA” value in [2] was 87.7 mL/µg; with CD30-Fc [3], 91.2 mL/µg. The Kd with CD30-Fc [1] and with CD30-Fc [6] was 3.1 nM throughout. In addition, the “relative reactivity in FACS (% of control)” value in assay [4] was 180 % of control; in [5], 111 % of control. The “inhibition of the binding of biotin-MAb (%)” value (from here on “inhibition … (%)”) in assay [7] was determined as 87.4%; in assay [8], 108%; in assay [9], 40.1%; in assay [10], 26.7%; in assay [11] it was 82.6%; in [12] it was 0%.

B5: T420 MAb (antibody, V domains shown)
VH: QVQLQQSGAELAKPGASVKMSCKASGYTFTSYWMHWVKQRPGQDLEWIGYINPSTDYTDYNQKFKDKATLTADKSSSTAYMQLSSLTSEDSAVYYCATRHYGSSYGFAYWGQGTLVTVSA
VL: DIVMTQSHKFMSTSVGDRVSITCKASQDVSTAVAWYQQKPGQSPKLLIYWASTRHTGVPDRFTGSGSGTDYSLTISSVQAEDLAVYYCQQHYRTPFTFGSGTKLEIKR
On to B5, for which the Kd with CD30-Fc [1] and in the assay with CD30-Fc [6] was 1.9 nM throughout.

B6: T6 MAb (antibody, V domains shown)
VH: QVQLKESGPGLVTPSQSLSITCTVSGFSLSKYSIHWVRQPPGRGLEWLGMIWGVENTDYNSALKSRLSISKDNSKSQVFLKMNSLQSDDTAMYYCARKDLGLYGMNYWGQGISVTVSA
VL: DIVMTQSQKFMSTSVGDRVSVTCKASQNVGTNVAWYQQKPGQSPKALFYSASYRYSGVPDRFIGSGSGTVFTLTISNVQSEDLAEYFCQQYNTYPLTFGSGTKLEIER
As to B6, the “titer in ELISA” value in [2] was 74.1 mL/µg; with CD30-Fc [3] it was 40 mL/µg. For the same molecule, the Kd with CD30-Fc [1] and in the assay with CD30-Fc [6] was 13 nM in each case. The “relative reactivity in FACS (% of control)” value was 140 % of control in assay [4] and 111 % of control in assay [5]. Further, the “inhibition … (%)” value is 100% in assay [7]; 108% in [8]; 3.9% in [9]; 25% in assay [10]; 97.9% in assay [11]; 0% in assay [12].

B7: T105 MAb (antibody, V domains shown)
VH: QVTLKESGPGILQPSQTLSLTCSFSGFSLSTSGMGVSWIRQPSGKDLEWLAHIYWDDDKRYNPSLKSRLTISKDTSSNQVFLKITSVDTADTATYYCARRADGLYFYLDVWGAGTTVTVSS
VL: DIVMTQSQKFMSTSVGDRVSVTCKASQNVNTNVAWYQQKPGQSPEALIYSASYRYSGVPDRFTGSGSGTDFTLTISNVQSEDLAEYFCQQYNSYPLTFGSGTKLEIKR
On to B7, for which the Kd with CD30-Fc [1] and with CD30-Fc [6] was 4.2 nM in each case.

B8: T25 MAb (antibody, V domains shown)
VH: QVTLKESGPGILQPSQTLSLTCSFSGFSLNTSGVGVGWIRQPSGKGLEWLAHIWWDDDERYNPVLKSRLTISKDTSSNQVFLKIANVDTADSATYYCVRSMVAWFPYWGRGTLVTVSA
VL: DIVMSQSPSSLAVSVGEKFTVNCKSSQSLLYSSNQKNFLAWYQQKPGQSPKLLIYWASTRESGVPDRFIGSGSGTDFTLTISSVKAEDLAVYYCQQHYRYPWTFGGGTKLEIKR
In the case of B8, the “titer in ELISA” value in assay [2] came to 135 mL/µg; in the assay with CD30-Fc [3] it was 50 mL/µg. Further, the Kd with CD30-Fc [1] and in the assay with CD30-Fc [6] was 6.4 nM each time. Also, the figures for the “relative reactivity in FACS (% of control)” value in assay [4] and in [5] were 80 % of control and 27.8 % of control, respectively. For the same molecule, the “inhibition … (%)” value in assay [7] was 1.5%; in assay [8] it was -1.3%; in [9] it was 0%; in [10], 79.8%; in assay [11], 0%; in assay [12], 0%.

B9: T201 MAb (antibody, V domains shown)
VH: QVQLKESGPGLVAPSQSLSITCTVSGFSLIDYGVSWVRQPPGKGLEWLGMIWGDGNTDYNSGLKSRLSISKDNSKSQVFLKVNSLQTDDTARYYCARPSTGTLFAYWGQGTLVTVSA
VL: EIVLTQSPTTMAASPGERITFTCSASSGISSIYLHWYQQKPGFSPKLLIYRTSNLASGVPPRFSGSGSGTSYSLTIGTMEAEDVATYYCQQGSSIPLTFGAGTKLELKR
Regarding B9, the Kd with CD30-Fc [1] was found to be 8.3 nM.

B10: T24 MAb (antibody, V domains shown)
VH: QVQLQQPGAELVRPGASVKLSCKASGYSFTSYWIDWVKQRPGQGLEWIGNIYPSNAYTNYNQKFKDKATLTVDKSSSTAYMQLSSPTSEDSAVYYCTSVLDYFYAMDYWGQGTSVTVSS
VL: DIQMTQTTSSLSASLGDRVTISCRASQDISNYLNWYQQKPDGTVKLLIYYTSRLHSGVPSRFSGSGSGTDYSLTISNLEQEDIATYFCQQVNTLPRTFGGGTKLEIKR
Consider B10, for which the “titer in ELISA” value in [2] was determined as 102 mL/µg; in the assay with CD30-Fc [3] it was 179 mL/µg. In addition, the Kd in the assay with CD30-Fc [1] and in the assay with CD30-Fc [6] was 2.2 nM each time. In addition, the “relative reactivity in FACS (% of control)” value in assay [4] is 160 % of control; in assay [5], 117 % of control. For the same molecule, the “inhibition … (%)” value amounted to 1.5% in [7]; 16.1% in [8]; 82.8% in assay [9]; 97.8% in assay [10]; 52.2% in assay [11]; 79.8% in assay [12].

Source of the values: US20060193771A1 (US Dept. of Health and Human Services, published 2006).
